Assay results reported in patent US20240156863A1 (MorphoSys, published 2024).

Molecular target: T1, Human CD19 (human, UniProt P15391 20-556)
T1 construct: Endogenous CD19 on the CD19+ cell lines Jeko (JeKo-1), Nalm-6 and Ly7; also called B-lymphocyte antigen CD19; B4
T1 sequence: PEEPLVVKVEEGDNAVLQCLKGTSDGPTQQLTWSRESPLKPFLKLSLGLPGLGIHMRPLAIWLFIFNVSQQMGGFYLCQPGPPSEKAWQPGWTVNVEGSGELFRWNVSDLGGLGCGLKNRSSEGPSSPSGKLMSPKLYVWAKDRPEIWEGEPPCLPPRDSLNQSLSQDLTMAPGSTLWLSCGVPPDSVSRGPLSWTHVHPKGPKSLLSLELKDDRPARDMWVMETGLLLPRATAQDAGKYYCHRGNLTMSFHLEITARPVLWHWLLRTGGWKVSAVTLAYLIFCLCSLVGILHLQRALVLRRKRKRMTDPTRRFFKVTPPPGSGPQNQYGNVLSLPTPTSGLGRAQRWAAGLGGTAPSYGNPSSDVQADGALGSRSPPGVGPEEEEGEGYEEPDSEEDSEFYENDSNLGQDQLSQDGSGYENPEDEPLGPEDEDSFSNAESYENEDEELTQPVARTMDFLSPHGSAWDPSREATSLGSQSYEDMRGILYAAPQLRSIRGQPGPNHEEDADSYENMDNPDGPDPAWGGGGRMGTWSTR
Assay: Pre-incubation of CD19+ Nalm-6 or Jeko cells, then flow cytometry with FMC63 as competitor
Experimental: FIG. 2: Clone FMC63 (CD19 binding domain in CART19) and tafasitamab compete for CD19 binding. After 4 hours of treatment of Jeko cells with 2 or 0.5 mg/mL of tafasitamab, flow cytometry using the FMC63 anti-CD19 antibody was performed.
It was studied, whether the observed CART19 activity may be influenced by tafasitamab in case of a direct CD19 binding competition between tafasitamab and the CAR. To first test for such binding competition, the CD19+ cell lines Nalm-6 or Jeko were incubated with 2 or 0.5 mg/mL tafasitamab, to saturate the receptors. […] To investigate for any potential impact of such binding competition on CART19 cell effector functions, tafasitamab was incubated with target cells (CD19+ cell lines Jeko, Ly7 or Nalm-6) at increasing concentrations and then CART19 cells were added at different effector: target ratios (0.1:1 to 10:1), without other effector cells to the cell culture.

B1: tafasitamab (antibody, human IgG1, kappa, V domains shown)
VH: EVQLVESGGGLVKPGGSLKLSCAASGYTFTSYVMHWVRQAPGKGLEWIGYINPYNDGTKYNEKFQGRVTISSDKSISTAYMELSSLRSEDTAMYYCARGTYYYGTRVFDYWGQGTLVTVSS
VL: DIVMTQSPATLSLSPGERATLSCRSSKSLQNVNGNTYLYWFQQKPGQSPQLLIYRMSNLNSGVPDRFSGSGSGTEFTLTISSLEPEDFAVYYCMQHLEYPITFGAGTKLEIKR
notes: Fc-enhanced, humanized monoclonal anti-CD19 antibody; also called MOR00208; MOR208
- binding result: binds
